Laboratory results taken from article PMC3722153, “Refolding of a Thermostable Glyceraldehyde Dehydrogenase for Application in Synthetic Cascade Biomanufacturing” (PLoS ONE, 2013).

Tests used:
purified protein [1] = substrate: NC(=O)c1ccc[n+]([C@@H]2O[C@H](COP(=O)(O)OP(=O)(O)OC[C@H]3O[C@@H](n4cnc5c(N)ncnc54)[C@H](O)[C@@H]3O)[C@@H](O)[C@H]2O)c1; experiment: purified protein; type: biochemical, Thermoplasma acidophilum; settings: 5 mM D-glyceraldehyde, 0-75 mM NAD+, 100 mM HEPES pH 6.2, 50°C, refolded enzyme 0.02 mg/mL, apparent, varied: cofactor
Source text: (§1) (glyceraldehyde dehydrogenase, aldehyde dehydrogenase from Thermoplasma acidophilum)

purified protein [2] = substrate: NC(=O)c1ccc[n+]([C@@H]2O[C@H](COP(=O)(O)OP(=O)(O)OC[C@H]3O[C@@H](n4cnc5c(N)ncnc54)[C@H](OP(=O)(O)O)[C@@H]3O)[C@@H](O)[C@H]2O)c1; experiment: purified protein; type: biochemical, Thermoplasma acidophilum; settings: 5 mM D-glyceraldehyde, 0-0.24 mM NADP+, 100 mM HEPES pH 6.2, 50°C, refolded enzyme 0.02 mg/mL, apparent, varied: cofactor
Source text: as §1

[3] = target: the molecule itself; experiment: SEC; Superdex 200 gel filtration, calibrated with molecular mass standards; 50 mg lyophilized TaAlDH dissolved in 10 mL 20 mM TRIS pH 8; soluble and refolded preparations

B1: glyceraldehyde dehydrogenase (aldehyde dehydrogenase) from Thermoplasma acidophilum (enzyme, UniProt Q9HK01 1-493, looked up)
chain: MDTKLYIDGQWVNSSSGKTVDKYSPVTGQVIGRFEAATRDDVDRAIDAAEDAFWAWNDLGSVERSKIIYRAKELIEKNRAELENIIMEENGKPVKEAKEEVDGVIDQIQYYAEWARKLNGEVVEGTSSHRKIFQYKVPYGIVVALTPWNFPAGMVARKLAPALLTGNTVVLKPSSDTPGSAEWIVRKFVEAGVPKGVLNFITGRGSEIGDYIVEHKKVNLITMTGSTATGQRIMQKASANMAKLILELGGKAPFMVWKDADMDNALKTLLWAKYWNAGQSCIAAERLYVHEDIYDTFMSRFVELSRKLALGDPKNADMGPLINKGALQATSEIVEEAKESGAKILFGGSQPSLSGPYRNGYFFLPTIIGNADQKSKIFQEEIFAPVIGARKISSVEEMYDLANDSKYGLASYLFTKDPNIIFEASERIRFGELYVNMPGPEASQGYHTGFRMTGQAGEGSKYGISEYLKLKNIYVDYSGKPLHINTVRDDLFQ
notes: glyceraldehyde dehydrogenase (TaAlDH) of Thermoplasma acidophilum; calculated mass 56 kDa (56.4 kDa); they are written as one molecule; also called TaAlDH; AlDH; source: E. coli BL21 (DE3)
**Q.** What does the source list for B1?
**A.** Km (purified protein [1]): 22.13 ± 1.43 mM; Vmax (purified protein [1]): 1.86 µmol/min/mg; Km (purified protein [2]): 0.022 ± 0.001 mM; Vmax (purified protein [2]): 0.849 µmol/min/mg; stoichiometry N [3]: 2
